The supplement of paper PMC9112550, “Optimization of the antimicrobial peptide Bac7 by deep mutational scanning” (BMC Biology, 2022)

What follows are sequences tested on Escherichia coli TOP10 (assay: shrunken log2 fold change of peptide-encoding DNA abundance (4.5 h post-induction vs induction); higher = less antimicrobial activity (less host growth inhibition)). Conditions: time post-induction: 4.5 h; library: site-saturation at positions 5, 18, 19, 20.
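Also: peptides expressed intracellularly from a pBAD plasmid library in pooled LB shake-flask culture, induced with 0.3% L-arabinose, DNA abundance read by NGS, three biological replicates, DESeq2 with apeglm shrinkage.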

Sequence	shrunken log2 fold change
RRIRHRPPRLPRPRPRPSHVPRP	-0.166
RRIRHRPPRLPRPRPRPSKPPRP	0.00696
RRIRHRPPRLPRPRPRPSLTPRP	0.0616
RRIRHRPPRLPRPRPRPSMKPRP	-0.436
RRIRHRPPRLPRPRPRPSMVPRP	-0.372
RRIRHRPPRLPRPRPRPSMWPRP	-0.095
RRIRHRPPRLPRPRPRPSNIPRP	-0.332
RRIRHRPPRLPRPRPRPSNWPRP	-0.106
RRIRHRPPRLPRPRPRPSPYPRP	-0.703
RRIRHRPPRLPRPRPRPSRHPRP	1.6
RRIRHRPPRLPRPRPRPSSIPRP	-0.762
RRIRHRPPRLPRPRPRPSTNPRP	-0.275
RRIRHRPPRLPRPRPRPSWGPRP	-0.0416
RRIRHRPPRLPRPRPRPSWPPRP	-0.00928
RRIRHRPPRLPRPRPRPSWWPRP	0.348
RRIRHRPPRLPRPRPRPSYLPRP	-0.683
RRIRHRPPRLPRPRPRPTAFPRP	-0.00502
RRIRHRPPRLPRPRPRPTAYPRP	-0.23
RRIRHRPPRLPRPRPRPTCFPRP	0.0654
RRIRHRPPRLPRPRPRPTCHPRP	-0.647
RRIRHRPPRLPRPRPRPTCSPRP	0.0782
RRIRHRPPRLPRPRPRPTDFPRP	-0.0704

Sequence	shrunken log2 fold change
RRIRHRPPRLPRPRPRPTDYPRP	0.029
RRIRHRPPRLPRPRPRPTEVPRP	-0.0182
RRIRHRPPRLPRPRPRPTGQPRP	0.0378
RRIRHRPPRLPRPRPRPTHGPRP	0.125
RRIRHRPPRLPRPRPRPTIDPRP	-0.252
RRIRHRPPRLPRPRPRPTKKPRP	-0.0507
RRIRHRPPRLPRPRPRPTMIPRP	-0.112
RRIRHRPPRLPRPRPRPTNIPRP	-0.135
RRIRHRPPRLPRPRPRPTNMPRP	1.96
RRIRHRPPRLPRPRPRPTQFPRP	-0.631
RRIRHRPPRLPRPRPRPTRIPRP	-0.0296
RRIRHRPPRLPRPRPRPTRPPRP	0.234
RRIRHRPPRLPRPRPRPTSLPRP	-0.135
RRIRHRPPRLPRPRPRPTSRPRP	0.0698
RRIRHRPPRLPRPRPRPTVEPRP	-0.0265
RRIRHRPPRLPRPRPRPTVKPRP	-0.255
RRIRHRPPRLPRPRPRPTWFPRP	0.17
RRIRHRPPRLPRPRPRPTWLPRP	0.326
RRIRHRPPRLPRPRPRPTYRPRP	-0.0234
RRIRHRPPRLPRPRPRPTYYPRP	-0.0104
RRIRHRPPRLPRPRPRPVAIPRP	2.06
RRIRHRPPRLPRPRPRPVAKPRP	-0.17

Sequence	shrunken log2 fold change
RRIRHRPPRLPRPRPRPVCDPRP	-0.41
RRIRHRPPRLPRPRPRPVCHPRP	-0.198
RRIRHRPPRLPRPRPRPVCQPRP	-0.147
RRIRHRPPRLPRPRPRPVDQPRP	0.00586
RRIRHRPPRLPRPRPRPVDWPRP	0.15
RRIRHRPPRLPRPRPRPVEEPRP	0.00298
RRIRHRPPRLPRPRPRPVGQPRP	0.0139
RRIRHRPPRLPRPRPRPVGRPRP	0.226
RRIRHRPPRLPRPRPRPVGVPRP	-0.00247
RRIRHRPPRLPRPRPRPVGWPRP	0.535
RRIRHRPPRLPRPRPRPVHHPRP	-0.0583
RRIRHRPPRLPRPRPRPVHIPRP	-0.035
RRIRHRPPRLPRPRPRPVHVPRP	-0.16
RRIRHRPPRLPRPRPRPVIGPRP	-0.0297
RRIRHRPPRLPRPRPRPVKDPRP	-0.549
RRIRHRPPRLPRPRPRPVLLPRP	-0.0673
RRIRHRPPRLPRPRPRPVMHPRP	0.000945
RRIRHRPPRLPRPRPRPVMIPRP	-0.0805
RRIRHRPPRLPRPRPRPVNRPRP	-0.26
RRIRHRPPRLPRPRPRPVQAPRP	0.00472
RRIRHRPPRLPRPRPRPVRLPRP	0.0217
RRIRHRPPRLPRPRPRPVSPPRP	0.183

Sequence	shrunken log2 fold change
RRIRHRPPRLPRPRPRPVSWPRP	0.442
RRIRHRPPRLPRPRPRPVTEPRP	-0.0954
RRIRHRPPRLPRPRPRPVTGPRP	-0.213
RRIRHRPPRLPRPRPRPVTYPRP	-0.181
RRIRHRPPRLPRPRPRPVWKPRP	-0.00992
RRIRHRPPRLPRPRPRPVWVPRP	-0.0634
RRIRHRPPRLPRPRPRPWAAPRP	-0.0958
RRIRHRPPRLPRPRPRPWAQPRP	0.0333
RRIRHRPPRLPRPRPRPWDEPRP	-0.175
RRIRHRPPRLPRPRPRPWDKPRP	-0.000233
RRIRHRPPRLPRPRPRPWFTPRP	-0.0018
RRIRHRPPRLPRPRPRPWGEPRP	-0.0132
RRIRHRPPRLPRPRPRPWGMPRP	-0.0998
RRIRHRPPRLPRPRPRPWLNPRP	-0.0017
RRIRHRPPRLPRPRPRPWMAPRP	-0.347
RRIRHRPPRLPRPRPRPWNGPRP	-0.228
RRIRHRPPRLPRPRPRPWPLPRP	-0.306
RRIRHRPPRLPRPRPRPWRAPRP	-0.0415
RRIRHRPPRLPRPRPRPWRKPRP	-0.00968
RRIRHRPPRLPRPRPRPWRLPRP	-0.0125
RRIRHRPPRLPRPRPRPWRVPRP	0.0326
RRIRHRPPRLPRPRPRPWTDPRP	-0.0171

Sequence	shrunken log2 fold change
RRIRHRPPRLPRPRPRPWTGPRP	-0.104
RRIRHRPPRLPRPRPRPWVKPRP	-0.0135
RRIRHRPPRLPRPRPRPWYDPRP	0.0351
RRIRHRPPRLPRPRPRPWYKPRP	-1.2
RRIRHRPPRLPRPRPRPYCQPRP	-0.746
RRIRHRPPRLPRPRPRPYCTPRP	-0.18
RRIRHRPPRLPRPRPRPYCVPRP	-0.154
RRIRHRPPRLPRPRPRPYDKPRP	-0.961
RRIRHRPPRLPRPRPRPYDPPRP	-0.00884
RRIRHRPPRLPRPRPRPYELPRP	-0.116
RRIRHRPPRLPRPRPRPYFMPRP	-0.489
RRIRHRPPRLPRPRPRPYGQPRP	-0.00191
RRIRHRPPRLPRPRPRPYHGPRP	-0.0161
RRIRHRPPRLPRPRPRPYHIPRP	-0.045
RRIRHRPPRLPRPRPRPYIIPRP	-0.855
RRIRHRPPRLPRPRPRPYLTPRP	-0.556
RRIRHRPPRLPRPRPRPYMQPRP	-0.476
RRIRHRPPRLPRPRPRPYPDPRP	0.0372
RRIRHRPPRLPRPRPRPYRAPRP	-0.258
RRIRHRPPRLPRPRPRPYSRPRP	-0.0123
RRIRHRPPRLPRPRPRPYTWPRP	-1.02
